Measurements published in patent US20250163164A1 (LANOVA MEDICINES DEVELOPMENT, published 2025).
Substitutions are numbered along the chain they refer to. Several values for one entry are separate records, joined by “and”; a condition that tells them apart may be missing. Equal values may be shown once.

T1: human interleukin 13 receptor subunit alpha 2 (IL-13RA2) (human, UniProt Q14627 27-380)
T1 construct: whole, on cells; also called IL-13Rα2; CD213A2
T1 sequence (looked up): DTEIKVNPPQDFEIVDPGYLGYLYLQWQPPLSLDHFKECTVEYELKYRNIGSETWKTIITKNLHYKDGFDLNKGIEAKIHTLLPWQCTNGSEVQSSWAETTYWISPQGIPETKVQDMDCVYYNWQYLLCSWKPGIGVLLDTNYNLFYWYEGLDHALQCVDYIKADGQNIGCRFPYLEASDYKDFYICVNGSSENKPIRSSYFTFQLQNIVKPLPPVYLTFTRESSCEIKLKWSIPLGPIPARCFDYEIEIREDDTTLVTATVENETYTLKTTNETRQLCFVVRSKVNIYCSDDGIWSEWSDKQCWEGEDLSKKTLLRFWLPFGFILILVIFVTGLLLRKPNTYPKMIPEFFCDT

B1: 72B4H4 H3L4 hIgG1 (antibody, V domains shown)
VH: QVQLVQSGAEVVKPGASVKLSCKASGYTFTNYWMNWVKQAPGQGLEWIGRIDAYAGETHYNQKFKDRATLTVDKSTSTVYMELSSLRSEDTAVYYCARGYGDAYGMDHWGQGTLVTVSS
VL: DIVLTQSPSSLSASVGDRATITCRASESVDNYGISFMNWFQQKPGKPPKLLIYAASRQGSGDPARFSGSGSGTDFTLTISSLQPEDFATYFCQQSKEVPWTFGGGTKLEIK
notes: humanized, hIgG1
B2: 72B4H4 H4L1 hIgG1 (antibody, V domains shown)
VH: B1 VH with A40R, T69I, V79A, S84R
VL: B1 VL with V3Q, L4M, A19V, F40Y, P47A, D62V, A64S, F91Y, G104Q, L108V
notes: humanized, hIgG1
B3: 72B4H4 H4L2 hIgG1 (antibody, V domains shown)
VH: B1 VH with A40R, T69I, V79A, S84R
VL: B1 VL with V3Q, L4M, A19V, P47A, A64S, G104Q, L108V
notes: humanized, hIgG1
B4: 72B4H4 H4L3 hIgG1 (antibody, V domains shown)
VH: B1 VH with A40R, T69I, V79A, S84R
VL: B1 VL with V3Q, A19V, P47A, L108V
notes: humanized, hIgG1
B5: 72B4H4 H4L4 hIgG1 (antibody, V domains shown)
VH: B1 VH with A40R, T69I, V79A, S84R
VL: B1 VL
notes: humanized, hIgG1
B6: 73A11E2 H2L2 hIgG1 (antibody, V domains shown)
VH: QVQLVQSGAEVVKPGASVKVSCKASGFTFSSYGMSWVRQAPGQGLEWVGTISGGGSYTYYPESVKGRFTITRDTSTSTAYMELRSLRSDDTAVYYCARRDLRSAMDYWGQGTLVTVSS
VL: DIVMTQSPLSLPVTLGQPASISCKASQNVDINVAWYQQRPGQSPRALIYSASYRYSGVPDRFSGSGSGTDFTLKISRVEAEDVGVFYCQQYNAYPLTFGQGTKLEIK
notes: humanized, hIgG1
B7: 73A11E2 H1L3 hIgG1 (antibody, V domains shown)
VH: B6 VH with V12K, V48M, F68V, I70M, R72T
VL: B6 VL with V13T, K74T, Q100G
notes: humanized, hIgG1
B8: 73A11E2 H2L1 hIgG1 (antibody, V domains shown)
VH: B6 VH
VL: B6 VL with I2V, Y36F, A46R, F86Y
notes: humanized, hIgG1
B9: 73A11E2 H2L3 hIgG1 (antibody, V domains shown)
VH: B6 VH
VL: B6 VL with V13T, K74T, Q100G
notes: humanized, hIgG1
B10: 73A11E2 H2L4 hIgG1 (antibody, V domains shown)
VH: B6 VH
VL: B6 VL with V13T, A19V, I21V, K74T, G84A, Y87F, Q100G
notes: humanized, hIgG1
B11: 73A11E2 H3L1 hIgG1 (antibody, V domains shown)
VH: B6 VH with V20L, G49A, T74N, A79L, L83M
VL: B6 VL with I2V, Y36F, A46R, F86Y
notes: humanized, hIgG1
B12: 73A11E2 H3L2 hIgG1 (antibody, V domains shown)
VH: B6 VH with V20L, G49A, T74N, A79L, L83M
VL: B6 VL
notes: humanized, hIgG1
B13: 73A11E2 H3L3 hIgG1 (antibody, V domains shown)
VH: B6 VH with V20L, G49A, T74N, A79L, L83M
VL: B6 VL with V13T, K74T, Q100G
notes: humanized, hIgG1
B14: 73A11E2 H3L4 hIgG1 (antibody, V domains shown)
VH: B6 VH with V20L, G49A, T74N, A79L, L83M
VL: B6 VL with V13T, A19V, I21V, K74T, G84A, Y87F, Q100G
notes: humanized, hIgG1
B15: 73A11E2 H4L2 hIgG1 (antibody, V domains shown)
VH: B6 VH with Q3K, Q6E, V20L, G44R, G49A, T74N, A79L, M81L, L83M
VL: B6 VL
notes: humanized, hIgG1
B16: 73A11E2 H4L3 hIgG1 (antibody, V domains shown)
VH: B6 VH with Q3K, Q6E, V20L, G44R, G49A, T74N, A79L, M81L, L83M
VL: B6 VL with V13T, K74T, Q100G
notes: humanized, hIgG1
B17: 73A11E2 H4L1 hIgG1 (antibody, V domains shown)
VH: B6 VH with Q3K, Q6E, V20L, G44R, G49A, T74N, A79L, M81L, L83M
VL: B6 VL with I2V, Y36F, A46R, F86Y
notes: humanized, hIgG1
B18: 73A11E2 H4L4 hIgG1 (antibody, V domains shown)
VH: B6 VH with Q3K, Q6E, V20L, G44R, G49A, T74N, A79L, M81L, L83M
VL: B6 VL with V13T, A19V, I21V, K74T, G84A, Y87F, Q100G
notes: humanized, hIgG1
B19: 62A8D8 (antibody, V domains shown)
VH: EVKLVESGGGLVKPGGSLKLSCAASGFTFSSYGMSWVRQTPEKRLEWVATISGGGSYTYYPDSVKGRFTISRDNAKNNLYLQMSSLRSEDTALYYCARRDLRSAMDYWGQGTSVTVSS
VL: DIVMTQSQKFMSTSVGDRVSVTCKASQNVDINVAWYQQKPGQSPKALIYSASYRYSGVPDRFTGSGSGTDFTLTISNVQSEDLAEFFCQQYNNYPLTFGGGTKLEIK
notes: purified mouse antibody
B20: 42E3C4 (antibody, V domains shown)
VH: B19 VH with K13R, L20I, S31T
VL: B19 VL with Y53F, F86Y, N93S
notes: purified mouse antibody
B21: 54A4F7 (antibody, V domains shown)
VH: B19 VH with Y107H
VL: B19 VL with K24R, A46S, F86Y, N93S, K107R
notes: purified mouse antibody
B22: 73A11E2 (antibody, V domains shown)
VH: B19 VH with K76R, S84N
VL: B19 VL with N93S
notes: purified mouse antibody
B23: 74B5E4 (antibody, V domains shown)
VH: B19 VH with K19R, S31T
VL: B19 VL with F86Y, N93T
notes: purified mouse antibody
B24: 62F6A8 (antibody, V domains shown)
VH: QVQIQQSGAELARPGASVMLSCKASGYTFTDYWMQWIKQRPGQGLEGIGAIYPGDGDTAYNQKFRGKATLTADKSSSTAYMQLNSLASEDSAVYFCARGATLLRPFPFWGQGTLVTVSA
VL: DIVMTQSHKFMSTSVGDRVSITCKASQDVSTAVAWYQQKPGQSPKLLIYSASYRYAGVPDRFTGSGSGTDFTFTISSVQAEDLAVYSCQQHYSIPPTFGGGTKLEIK
notes: purified mouse antibody
B25: 61H8C1 (antibody, V domains shown)
VH: B24 VH with I4L, D31S, M34T, G56D, A59S, R65K, A87T, F95Y, F108Y
VL: B24 VL with A56T
notes: purified mouse antibody
B26: 51G2B3 (antibody, V domains shown)
VH: QVQLQQSGPELVKPGASVKISCKASGYAFSDSWMNWVKQRPGQGLEWIGRIYPGDGDTNYNGKFKGKATLTADKSSNTAYMQLSSLTSVDSAVYFCARSWNGSPWFPYWGQGTLVTVSA
VL: DVLMTQTPLSLPVSLGDQASISCRSSQTIAHRNGNTYLEWYLQKPGQSPKLLLYKVSNRFSGVPDRFSGSGSGTDFTLKISRVEAEDLGVYYCFQGSHVTWTFGGGTKLEIK
notes: purified mouse antibody
B27: 72B4H4 (antibody, V domains shown)
VH: QVQLQQPGAERVRPGASVKLSCKASGYTFTNYWMNWVKQRPEQGLEWIGRIDPYAGETHYNQKFKDKAILTVDKSSSTAYMQLRSLTSEDSAVYYCARGYGDSYGMDHWGQGTSVTVSS
VL: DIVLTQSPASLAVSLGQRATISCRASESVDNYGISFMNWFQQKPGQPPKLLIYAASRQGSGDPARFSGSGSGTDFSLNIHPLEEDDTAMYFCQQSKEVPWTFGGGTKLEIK
notes: purified mouse antibody
B28: 34A5G9 (antibody, V domains shown)
VH: EVHLQQSGPELVKPGASVKISCKTSGYTFTEYTMHWVKQSHGKSLEWIGRINPNNGIAEYKQTFKDKATLAVDKSSSTAYMEFRSLTSEDSAVYYCARGEGYGYWFAYWGQGTLVTVSA
VL: DIQMTQSPASLSASVGETVTITCRTSDNIYSYLAWYQQRQGKSPQLLVSNARTLAEGVPSRFSGSGSGTQFSLKINSLQPEDFGIYYCQHHSGTPFTFGSGTNLEIE
notes: purified mouse antibody
B29: 57F8H3F1 (antibody, V domains shown)
VH: QVQLQQPGAELVRPGASVKLSCKASGYTFTNYWMNWIKQRPEQGLEWIGRIDPYETETHYNQKFRDRAILTVDKSSSTAFMQLSGLTSEDSAVYYCARGYGHYYGVDYWGQGTSVTVSS
VL: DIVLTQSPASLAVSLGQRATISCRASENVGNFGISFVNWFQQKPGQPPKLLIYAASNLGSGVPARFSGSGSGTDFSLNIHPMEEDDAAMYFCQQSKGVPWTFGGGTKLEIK
notes: purified mouse antibody
B30: 24G6D5 (antibody, V domains shown)
VH: QVQLQQSGPELVKPGTSVKMSCKASGYTFTSNYIHWVKQRPGQGLEWIGWIYPGDGSIKYNEKFKGKTTLTADKSSSTVYMLLSSLTSEDSAIYFCAVLRRLDYWGQGTTLTVSS
VL: DIVLTQSPATLSVTPGDSVSLSCRASQSISNNLHWYQQKSHESPRLLIKYASQSISGIPSRFSGSGSGTDFTLSINSVETEDFGMYFCQQSNSWPLTFGAGTKLELK
notes: purified mouse antibody

Target: T1, human interleukin 13 receptor subunit …
Assay: FACS on A375 cells
Protocol: (§1) A375 cells that endogenously expressed IL-13RA2, were harvested from flasks. 100 μl of 1×10⁶ cells/ml of cells were incubated with primary humanized antibodies in 4-fold serial dilutions starting from 200 nM to 0.003 nM for 30 minutes on ice. After being washed with 200 μl of FACS buffer twice, cells were incubated with secondary antibody for 30 minutes on ice. Cells were washed with 200 μl of FACS buffer twice and analyzed by FACS.

Point of comparison: B5, EC50 1.18 nM. Against it:
- B1 — within 1.5-fold, 1.36 nM
- B2 — 2.1-fold lower, 0.552 nM
- B3 — within 1.5-fold, 0.976 nM
- B4 — within 1.5-fold, 0.811 nM
- B6 — 1.8-fold lower, 0.67 nM

Point of comparison: B1, “Top (MFI)” value 8770 MFI. Against it:
- B2 — lower, 8270 MFI
- B3 — lower, 8610 MFI
- B4 — lower, 8470 MFI
- B5 — lower, 8180 MFI

In the case of B7, the EC50 is reported as ~251 nM and ~522 nM.
With B8 the EC50 was 0.6 nM and 0.56 nM.
For B9, the EC50 was 0.69 nM and 0.67 nM.
B10 was tested, and the EC50 was 1.61 nM and 0.66 nM.
For B11, the EC50 was 1.07 nM and 1.37 nM.
With B12 the EC50 was 2.22 nM and 1.53 nM.
For B13, the EC50 was 1.49 nM and 1.17 nM.
In the case of B14, the EC50 is reported as 1.16 nM and 1.29 nM.
In the case of B15, the EC50 is reported as 1.12 nM and 1.31 nM.
B16 was tested, and the EC50 was 0.909 nM and 1.45 nM.
B17 was tested, and the EC50 was 0.943 nM and 1.2 nM.
B18 was tested, and the EC50 was 1.12 nM and 1.51 nM.

Target: T1, human interleukin 13 receptor subunit …
Assay: FACS on A375 cells
Remark: another data set of the same source
Protocol: as §1, with “expressed IL-13RA2” for “expressed IL-13RA2,”, “primary” for “primary humanized”, “from 100” for “from 200”, “to 0.006” for “to 0.003”

Point of comparison: B30, EC50 0.68 nM. Against it:
- B19 — within 1.5-fold, 0.9 nM
- B20 — within 1.5-fold, 0.52 nM
- B21 — within 1.5-fold, 0.84 nM
- B22 — within 1.5-fold, 0.71 nM
- B23 — within 1.5-fold, 0.6 nM
- B24 — the same, 0.68 nM
- B25 — 1.7-fold lower, 0.41 nM
- B26 — within 1.5-fold, 0.87 nM
- B27 — within 1.5-fold, 0.76 nM
- B28 — within 1.5-fold, 0.67 nM
- B29 — within 1.5-fold, 0.7 nM

Point of comparison: B19, “Top (MFI)” value 334000 MFI. Against it:
- B20 — lower, 235000 MFI
- B21 — lower, 268000 MFI
- B22 — lower, 223000 MFI
- B23 — lower, 268000 MFI
- B24 — lower, 217000 MFI
- B25 — lower, 203000 MFI
- B26 — lower, 243000 MFI
- B27 — lower, 262000 MFI
- B28 — lower, 248000 MFI
- B29 — lower, 246000 MFI
- B30 — lower, 226000 MFI
